According to patent US20200010836A1, “Regulation of Gene Expression by Aptamer-Mediated Accessibility of Polyadenylation Signals” (MEIRAGTX, UK II Limited, priority 2017, published 2020):
Residue numbers refer to the chain shown, from its start.

Tests used:
[1] = tested on: luciferase expression; assay: Firefly luciferase assay of HEK 293 cells transfected with adenine aptamer construct, treated with adenine; format: cell-based
Protocol: (§1) Transfection and aptamer ligand treatment: 3.5×10^4 HEK 293 cells were plated in a 96-well flat bottom plate the day before transfection. Plasmid DNA (500 ng) was added to a tube or a 96-well U-bottom plate. Separately, TransIT-293 reagent (Minis; 1.4 μl) was added to 50 μl opti-mem I media (Life Technologies), and allowed to sit for 5 minutes at room temperature (“RT”). Then, 50 μl of this diluted transfection reagent was added to the DNA, mixed, and incubated at RT for 20 min. Finally, 7 μl of this solution was added to a well of cells in a 96-well plate. Four hours after transfection, the media was aspirated, and new media was added with (i) DMSO (0.5%) or 500 μM guanosine; or (ii) NaOH (2 mM) as solvent control or 500 μM guanine. The induction fold was expressed as the quotient of luciferase activity obtained in the presence of aptamer ligand divided by the value obtained in the absence of the aptamer ligand.
(§2) Firefly luciferase assay of cultured cells: Twenty-four hours after media change, plates were removed from the incubator, and equilibrated to RT for several minutes on a lab bench, then aspirated. Glo-lysis buffer (Promega, […]) was added, and the plates allowed to remain at RT for at least 5 minutes. Then, the well contents were mixed by 50 μL trituration, and 20 μL of each sample was mixed with 20 μL of bright-glo reagent (Promega) that had been diluted to 10% in glo-lysis buffer. 96 wells were spaced on an opaque white 384-well plate. Following a 5-min incubation at RT, luminescence was measured using Tecan machine with 500 mSec read time. The luciferase activity was expressed as mean relative light unit (RLU)±S.D.
Four hours after transfection, the media was aspirated, and new media with NaOH (1 mM) or 1 mM adenine (Calbiochem) was added. The induction fold was expressed as the quotient of luciferase activity obtained in the presence of aptamer ligand divided by the value obtained in the absence of the aptamer ligand.

[2] = tested on: luciferase expression; assay: Firefly luciferase assay of HEK 293 cells transfected with riboswitch constructs, treated with guanosine or guanine; format: cell-based; settings: for induction fold of luciferase activity (presence / absence of guanosine): 500 μM guanosine vs DMSO solvent control; for basal luciferase expression reduced by % versus control construct pFLuc / basal level luciferase expression, % of the pFLuc control vector: absence of guanine treatment; for basal luciferase expression reduced by % versus control construct pFLuc: given as 'reduced by'; for fold induction by guanine compared with other constructs: 500 μM guanine; for basal level luciferase expression in the absence of guanine (comparison in words): no guanine, compared with control or parent construct; for induction fold of luciferase activity (presence / absence of guanine): 500 μM guanine vs NaOH solvent control
Protocol: as §1, §2

B1: ATA_Ydhl: SEQ ID NO: 17; adenine aptamer ydhl-A linked to 9 bp TTCG stem-loop embedding AATAAA, P1 stem 10 bp (nucleic acid)
DNA: AAGGCCAAGAAGGGCGGAAAGATCGCCGTGTAAGCCATACCACATTTGTAGAGGTTTTACTTGCTTTAAAAAACCTCCCACACCTCCCCCTGAACCTGAAACATAAAATGAATGCAATTGTTGTTGTTAACTTGTTTATTGCAGCTTATAATGGTTACAAATAAAGCAATAGCATCACAAATTTCAATAAAGGTATAACCTCAATAATATGGTTTGAGGGTGTCTACCAGGAACCGTAAAATCCTGATTACCTTTATTTCTTCGGAAATAAAGCATTTTTTTCACTGCATTCTAGTTGTGGTTTGTCCAAACTCATCAATGTATCTTAACGCGT
[1]; 1 mM adenine
  luciferase expression in the presence of adenine, % of the control pFLuc construct in the presence of adenine: approximately 82%
[1]; 1 mM adenine vs NaOH solvent control
  fold increase in luciferase expression on adenine treatment: 4.0 fold
[1]; absence of adenine treatment
  luciferase level in the absence of adenine, % of the control pFLuc construct: approximately 52%

B2: DSE_Gua_2: SEQ ID NO: 6; xpt-guanine aptamer linked to 10 bp stem-loop embedding DSE (nucleic acid)
DNA: AAGGCCAAGAAGGGCGGAAAGATCGCCGTGTAAGCCATACCACATTTGTAGAGGTTTTACTTGCTTTAAAAAACCTCCCACACCTCCCCCTGAACCTGAAACATAAAATGAATGCAATTGTTGTTGTTAACTTGTTTATTGCAGCTTATAATGGTTACAAATAAAGCAATAGCATCACAAATTTCACAAATAAAGCATTTTTTTCACTGCATTCTAGTTGTGGTTTGTCCGAAAGGACAAACCAATAATCGCGTGGATATGGCACGCAAGTTTCTACCGGGCACCGTAAATGTCCGACTTGGTTTGAAACTCATCAATGTATCTTAACGCGT
[2]
  induction fold of luciferase activity (presence / absence of guanosine): 3.7 fold

B3: ATA_Gua_1: luciferase construct, SEQ ID NO: 1; xpt-guanine aptamer linked to 9 bp effector stem-loop (GAAA loop) embedding AATAAA of SV40 early polyA (nucleic acid)
DNA: AAGGCCAAGAAGGGCGGAAAGATCGCCGTGTAAGCCATACCACATTTGTAGAGGTTTTACTTGCTTTAAAAAACCTCCCACACCTCCCCCTGAACCTGAAACATAAAATGAATGCAATTGTTGTTGTTAACTTGTTTATTGCAGCTTATAATGGTTACAAATAAAGCAATAGCATCACAAATTTCTAAAGGTATAATCGCGTGGATATGGCACGCAAGTTTCTACCGGGCACCGTAAATGTCCGACTACCTTTATTTCGAAAGAAATAAAGCATTTTTTTCACTGCATTCTAGTTGTGGTTTGTCCAAACTCATCAATGTATCTTAACGCGT
[2]
  induction fold of luciferase activity (presence / absence of guanosine): 6.7 fold
  basal luciferase expression reduced by % versus control construct pFLuc: 45%

B4: Stbl_ATA_Gua_1: SEQ ID NO: 14; ATA_Gua_1 with GAAA loop replaced by more stable TTCG loop (nucleic acid)
DNA: B3 DNA with G259T, A260T, A261C, A262G
[2]
  fold induction by guanine compared with other constructs: higher induction fold
  basal level luciferase expression in the absence of guanine (comparison in words): lower luciferase activity

B5: gaat_ATA_Gua_1: SEQ ID NO: 15; ATA_Gua_1 variant containing GAAT loop (nucleic acid)
DNA: B3 DNA with A262T
[2]
  fold induction by guanine compared with other constructs: slightly lower fold induction
  basal level luciferase expression in the absence of guanine (comparison in words): higher basal level luciferase

B6: mtSPA_ATA_Gua: SEQ ID NO: 13; xpt-guanine aptamer with 9 bp stem embedding AATAAA of mtSPA, 2 GC base pairs added (nucleic acid)
DNA: AAGGCCAAGAAGGGCGGAAAGATCGCCGTGTAAGGATCCAAGCTTATCGATACCGTCGACCTCGAGGGCCCAGATCTGCGGAAAAGGTATAATCGCGTGGATATGGCACGCAAGTTTCTACCGGGCACCGTAAATGTCCGACTACCTTTTATTGCGAAAGCAATAAAATATCTTTATTTTCATTACATCTGTGTGTTGGTTTTTTGTGTGTCTAGAAATAATTCTTACT
[2]
  induction fold of luciferase activity (presence / absence of guanine): 1.7 fold
  basal level luciferase expression in the absence of guanine (comparison in words): decreased

B7: ATA_DSE_Gua: SEQ ID NO: 16; pFLuc construct containing both ATA_Gua_1 and DSE_Gua_1 switches (nucleic acid)
DNA: AAGGCCAAGAAGGGCGGAAAGATCGCCGTGTAAGCCATACCACATTTGTAGAGGTTTTACTTGCTTTAAAAAACCTCCCACACCTCCCCCTGAACCTGAAACATAAAATGAATGCAATTGTTGTTGTTAACTTGTTTATTGCAGCTTATAATGGTTACAAATAAAGCAATAGCATCACAAATTTCTAAAGGTATAATCGCGTGGATATGGCACGCAAGTTTCTACCGGGCACCGTAAATGTCCGACTACCTTTATTTCGAAAGAAATAAAGCATTTTTTTCACTGCATTCTAGTTGTGGTTTGTCCGAAAGGACAAACCATAATCGCGTGGATATGGCACGCAAGTTTCTACCGGGCACCGTAAATGTCCGACTGGTTTGTAAACTCATCAATGTATCTTAACGCGT
[2]
  induction fold of luciferase activity (presence / absence of guanine): approximately 2.1 fold
  basal level luciferase expression, % of the pFLuc control vector: 20%
  basal level luciferase expression in the absence of guanine (comparison in words): further decreases the basal level

B8: SPA_DSE_Gua: SEQ ID NO: 11; xpt-guanine aptamer linked to 3′ end of stem-loop embedding DSE of synthetic polyA (nucleic acid)
DNA: AAGGCCAAGAAGGGCGGAAAGATCGCCGTGTAAGGATCCAAGCTTATCGATACCGTCGACCTCGAGGGCCCAGATCTGCGGCCGCAATAAAAGATCTTTATTTTCATTAGATCTGTGTGTTGGTTTTTTGTGTGTCGAAAGACACACAATATAATCGCGTGGATATGGCACGCAAGTTTCTACCGGGCACCGTAAATGTCCGACTATTGTGTGGAAATAATTCTTACT
[2]
  induction fold of luciferase activity (presence / absence of guanine): 1.9 fold

B9: SPA_ATA_Gua: SEQ ID NO: 10; xpt-guanine aptamer linked to stem-loop embedding AATAAA of synthetic polyA sequence (nucleic acid)
DNA: AAGGCCAAGAAGGGCGGAAAGATCGCCGTGTAAGGATCCAAGCTTATCGATACCGTCGACCTCGAGGGCCCAGATCTGCGGCAAAAGGTATAATCGCGTGGATATGGCACGCAAGTTTCTACCGGGCACCGTAAATGTCCGACTACCTTTTATTGGAAACAATAAAAGATCTTTATTTTCATTAGATCTGTGTGTTGGTTTTTTGTGTGTCTAGAAATAATTCTTACT
[2]
  basal level luciferase expression in the absence of guanine (comparison in words): did not result in reduced luciferase activity

B10: DSE_Gua_1: SEQ ID NO: 5; xpt-guanine aptamer linked to 3′ end of 9 bp stem-loop embedding DSE of SV40 early polyA (nucleic acid)
DNA: AAGGCCAAGAAGGGCGGAAAGATCGCCGTGTAAGCCATACCACATTTGTAGAGGTTTTACTTGCTTTAAAAAACCTCCCACACCTCCCCCTGAACCTGAAACATAAAATGAATGCAATTGTTGTTGTTAACTTGTTTATTGCAGCTTATAATGGTTACAAATAAAGCAATAGCATCACAAATTTCACAAATAAAGCATTTTTTTCACTGCATTCTAGTTGTGGTTTGTCCGAAAGGACAAACCATAATCGCGTGGATATGGCACGCAAGTTTCTACCGGGCACCGTAAATGTCCGACTGGTTTGTAAACTCATCAATGTATCTTAACGCGT
[2]
  basal luciferase expression reduced by % versus control construct pFLuc: 35%

B11: DSE_Gua_4: SEQ ID NO: 8; xpt-guanine aptamer linked to 14 bp stem-loop embedding DSE (nucleic acid)
DNA: AAGGCCAAGAAGGGCGGAAAGATCGCCGTGTAAGCCATACCACATTTGTAGAGGTTTTACTTGCTTTAAAAAACCTCCCACACCTCCCCCTGAACCTGAAACATAAAATGAATGCAATTGTTGTTGTTAACTTGTTTATTGCAGCTTATAATGGTTACAAATAAAGCAATAGCATCACAAATTTCACAAATAAAGCATTTTTTTCACTGCATTCTAGTTGTGGTTTGTCCGAAAGGACAAACCACAACATAATCGCGTGGATATGGCACGCAAGTTTCTACCGGGCACCGTAAATGTCCGACTGTTGTGGAAACTCATCAATGTATCTTAACGCGT
[2]; DMSO treated, compared among constructs and with pFLuc-SV40
  luciferase activity in the absence of aptamer ligand guanosine (comparison in words): lowest
[2]
  basal level luciferase expression, % of the pFLuc control vector: ~80%
